Measured values published in patent US20110091971A1, “Differentiation of Pluripotent Stem Cells” (priority 2008, published 2011).
Positions count from the first letter of the chain named.

B1: ACTN7: activin A variant peptide, SEQ ID 8 (protein)
chain: GLECDGKVNYCCKKQHFVSFKDIGWNDWIIAPSGYHANSCSGLCPSHIAGTSGSSLSFHSTVINHYRMRGHSPFSQMGSCCIPTKLRPMSMLYYDDGQNIIKKDIQNMIVEECGCS
B2: ACTN8: activin A variant peptide, SEQ ID 9 (protein)
chain: B1 chain with H16D, S39K, L43K, Q76D, I82V
B3: ACTN14: activin A variant peptide, SEQ ID 15 (protein)
chain: B1 chain with Y10L, S39R, S41D, S75A, I82V
B4: ACTN21: activin A variant peptide, SEQ ID 22 (protein)
chain: B1 chain with H16W, S39K, L43K, S75A, Q76N
B5: ACTN18: activin A variant peptide, SEQ ID 19 (protein)
chain: B1 chain with H16N, S39K, L43K, Q76D, S79A
B6: ACTN12: activin A variant peptide, SEQ ID 13 (protein)
chain: B1 chain with H16N, S39E
B7: ACTN20: activin A variant peptide, SEQ ID 21 (protein)
chain: B1 chain with Y10L, H16N, S39K, S41G, S75A, S79A
B8: ACTN9: activin A variant peptide, SEQ ID 10 (protein)
chain: B1 chain with H16D, S39K, S41T, L43K, S75A, Q76D, M77L, S79A
B9: ACTN11: activin A variant peptide, SEQ ID 12 (protein)
chain: B1 chain with Y10L, H16L, S39H, S75A, S79A
B10: ACTN19: activin A variant peptide, SEQ ID 20 (protein)
chain: B1 chain with Y10L, H16D, S39K, S41G, L43K, S75A, Q76N
B11: ACTN17: activin A variant peptide, SEQ ID 18 (protein)
chain: B1 chain with H16D, S39K, S41G, L43K, Q76D, S79A, I82V
B12: ACTN10: activin A variant peptide, SEQ ID 11 (protein)
chain: B1 chain with H16D, S39R, S75A
B13: ACTN94: activin A variant peptide, SEQ ID 95 (protein)
chain: GLECDGKVNICCKKQSFGQAKDIGWNDWIIAPSGYHGGGCTGECPSHIAGTSGSSLSFHSTVINHYRMRGHSPWANLKSCCSPTKLRPMSMLYYDDGQNIIKKDIQRMVAEECGCT

These molecules were tested on H1 or H9 human embryonic stem cells (assay: Activin A bioassay: differentiation of human embryonic stem cells to definitive endoderm, cell number and SOX17 intensity by high content analysis (96-well, four days)). Details: supernatant concentration 1x, assay dilution 1:20.
Type: cell-based
Procedure, shortened: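 Read-out was cell count and integrated SOX17 immunofluorescence by high-content imaging, with each well divided by the mean of the 100 ng/ml activin A control. Over the four-day culture, test samples were given in DMEM:F12 with 0.5% FCS plus 20 ng/ml Wnt3a for the first two days and in 2% FCS alone for the last two. Cells were H1 or H9 hESC clusters grown on Matrigel.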
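Throughout, for Cell Number average: Raw total cell count per well from high content imaging.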
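Throughout, for Sox 17 Intensity average: total fluorescence of the cell multiplied by cell area.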

Molecule | Cell Number average | Sox 17 Intensity average
B1 | 1133 | 1.108E+07
B2 | 363 | 5.578E+06
B3 | 4968 | 1.50E+06
B4 | 8072 | 6.33E+03
B5 | 6078 | 5.68E+05
B6 | 5420 | 1.10E+06
B7 | 9000 | 1.26E+04
B8 | 11391 | 5.97E+05
B9 | 5239 | 3.47E+06
B10 | 11017 | 4.09E+04
B11 | 10154 | 1.21E+06
B12 | 7417 | 7.52E+05

Same assay, conditions: supernatant concentration 1x, assay dilution 1:20; control = R&D Sys Activin A 100 ng/ml on same plate

Molecule | Sox 17 Intensity % of control [%]
B1 | 6.0
B2 | 3.0
B3 | 5.8
B4 | 0.0
B5 | 2.2
B6 | 4.3
B7 | 0.0
B8 | 2.3
B9 | 13.4
B10 | 0.1
B11 | 4.7
B12 | 2.9

Same assay, conditions: supernatant concentration 10x, assay dilution 1:20

Molecule | Cell Number average | Sox 17 Intensity average
B1 | 2714 | 1.904E+07
B2 | 1419 | 1.181E+07
B3 | 6278 | 3.66E+06
B4 | 11102 | 4.89E+05
B5 | 9676 | 1.22E+06
B6 | 6633 | 7.65E+06
B7 | 10217 | 1.52E+05
B8 | 11456 | 6.63E+05
B9 | 10321 | 4.06E+07
B10 | 11587 | 3.96E+04
B11 | 12596 | 2.83E+05
B12 | 8942 | 1.08E+06

Same assay, conditions: supernatant concentration 10x, assay dilution 1:20; assay plates #007, #009, #010

Molecule | Cell Number average | Sox 17 Intensity average
B13 | 20142 | 1.51E+07

Same assay, conditions: supernatant concentration 10x, assay dilution 1:20; control = R&D Sys Activin A 100 ng/ml on same plate

Molecule | Sox 17 Intensity % of control [%]
B1 | 10.4
B2 | 6.4
B3 | 14.1
B4 | 1.7
B5 | 4.7
B6 | 29.6
B7 | 0.5
B8 | 2.6
B9 | 156.8
B10 | 0.1
B11 | 1.1
B12 | 4.2
B13 | 10.7

Same assay, conditions: supernatant concentration 10x, assay dilution 1:40

Molecule | Cell Number average | Sox 17 Intensity average
B1 | 1387 | 1.099E+07
B2 | 372 | 3.869E+06
B3 | 5584 | 4.73E+06
B4 | 10458 | 8.77E+04
B5 | 11683 | 2.22E+05
B6 | 6317 | 2.43E+06
B7 | 12284 | 9.03E+03
B8 | 9608 | 4.19E+05
B9 | 9493 | 2.79E+07
B10 | 12549 | 4.86E+03
B11 | 10807 | 4.38E+05
B12 | 7333 | 5.59E+05

Same assay, conditions: supernatant concentration 10x, assay dilution 1:40; control = R&D Sys Activin A 100 ng/ml on same plate

Molecule | Sox 17 Intensity % of control [%]
B1 | 6.0
B2 | 2.1
B3 | 18.3
B4 | 0.3
B5 | 0.9
B6 | 9.4
B7 | 0.0
B8 | 1.6
B9 | 107.8
B10 | 0.0
B11 | 1.7
B12 | 2.2
